Experiments:
Cys45 = assay: UV-vis; conditions: 10 °C; poly-buffer: 10 mM sodium acetate, 10 mM sodium phosphate, 10 mM sodium borate, 10 mM sodium citrate, pH 9.4, titrated with 100 mM HCl; Reduced protein (20 µM), referenced to CHP-oxidised protein; folded.
Cys42 = assay: UV-vis; conditions: 10 °C; poly-buffer: 10 mM sodium acetate, 10 mM sodium phosphate, 10 mM sodium borate, 10 mM sodium citrate, pH 9.4, titrated with 100 mM HCl; Reduced protein (20 µM), referenced to CHP-oxidised protein; folded.

In the case of “Alkyl hydroperoxide reductase CgAhp (NCgl0877), AhpD-like disulfide oxidoreductase (Corynebacterium glutamicum (strain RES167, derivative of ATCC 13032))”, the pKa (Cys45) is reported as 8.39 and the pKa (Cys42) is reported as “lower than 6”.
